Patent US6033847

Key:
[1] = molecular target: CDK6-cyclin D2 holoenzyme complex (Mus musculus (Mouse)) (UniProt P30280)
[2] = molecular target: CDK4-cyclin D2 holoenzyme complex (Mus musculus (Mouse)) (UniProt P30285)

Substance	pRb kinase activity (fold less efficient) [1]	pRb kinase activity (fold less efficient) [2]
GST-MAD3 (GST fused to mouse IkB (MAD3)) (from UniProt Q9Z1E3)	> 30	> 30
GST-ANK6 (GST fused to the MAD3 subdomain containing only the five ankyrin repeats, amino acids 73-242) (from UniProt P08515)	> 30	> 30
